From patent US20210171647A1 (WUXI BIOLOGICS SHANGHAI, published 2021)

Columns and labels:
Assay in all cases: ELISA, antibody coated, OX40-ECD.His mutant supernatant; relative to silent alanine substitutions;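 also: captured OX40 mutant protein detected with HRP-labelled anti-His antibody, absorbance read-out, scaled to the mean signal of control mutants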
human OX40-ECD.His E94A = molecular target: T1, human OX40-ECD.His E94A (human, UniProt P43489 29-214)
T1 construct: extracellular domain; not shown: C-terminal His-tag
T1 sequence (looked up): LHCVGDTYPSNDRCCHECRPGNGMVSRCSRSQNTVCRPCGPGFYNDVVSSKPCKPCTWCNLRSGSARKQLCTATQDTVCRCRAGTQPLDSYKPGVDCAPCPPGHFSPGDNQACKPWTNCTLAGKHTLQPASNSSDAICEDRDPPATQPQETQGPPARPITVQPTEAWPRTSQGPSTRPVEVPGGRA

human OX40-ECD.His T85A = molecular target: T2, human OX40-ECD.His T85A (human, UniProt P43489 29-214)
T2 construct: extracellular domain; not shown: C-terminal His-tag
T2 sequence (looked up): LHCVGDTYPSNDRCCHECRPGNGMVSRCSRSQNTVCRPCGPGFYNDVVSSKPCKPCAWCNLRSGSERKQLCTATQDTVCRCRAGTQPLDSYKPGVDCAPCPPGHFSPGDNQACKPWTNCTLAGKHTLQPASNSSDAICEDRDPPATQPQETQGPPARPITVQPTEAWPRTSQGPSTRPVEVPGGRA

human OX40-ECD.His E45A = molecular target: T3, human OX40-ECD.His E45A (human, UniProt P43489 29-214)
T3 construct: extracellular domain; not shown: C-terminal His-tag
T3 sequence (looked up): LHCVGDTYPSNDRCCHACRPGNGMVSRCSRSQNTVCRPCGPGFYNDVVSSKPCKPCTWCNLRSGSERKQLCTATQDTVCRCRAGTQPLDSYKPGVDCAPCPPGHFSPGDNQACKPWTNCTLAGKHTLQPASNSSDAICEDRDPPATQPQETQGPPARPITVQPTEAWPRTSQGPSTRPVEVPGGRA

human OX40-ECD.His K79A = molecular target: T4, human OX40-ECD.His K79A (human, UniProt P43489 29-214)
T4 construct: extracellular domain; not shown: C-terminal His-tag
T4 sequence (looked up): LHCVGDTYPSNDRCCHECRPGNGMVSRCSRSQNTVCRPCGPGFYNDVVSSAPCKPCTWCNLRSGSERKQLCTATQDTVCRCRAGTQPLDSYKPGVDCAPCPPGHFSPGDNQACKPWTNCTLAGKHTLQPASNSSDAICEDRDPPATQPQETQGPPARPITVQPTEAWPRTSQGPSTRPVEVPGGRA

human OX40-ECD.His N146A = molecular target: T5, human OX40-ECD.His N146A (human, UniProt P43489 29-214)
T5 construct: extracellular domain; not shown: C-terminal His-tag
T5 sequence (looked up): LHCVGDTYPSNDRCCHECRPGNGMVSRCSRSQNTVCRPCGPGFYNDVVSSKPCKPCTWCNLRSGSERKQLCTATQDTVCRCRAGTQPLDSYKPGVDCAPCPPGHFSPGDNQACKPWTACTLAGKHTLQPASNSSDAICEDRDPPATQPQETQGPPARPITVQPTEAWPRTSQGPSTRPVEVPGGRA

human OX40-ECD.His S38A = molecular target: T6, human OX40-ECD.His S38A (human, UniProt P43489 29-214)
T6 construct: extracellular domain; not shown: C-terminal His-tag
T6 sequence (looked up): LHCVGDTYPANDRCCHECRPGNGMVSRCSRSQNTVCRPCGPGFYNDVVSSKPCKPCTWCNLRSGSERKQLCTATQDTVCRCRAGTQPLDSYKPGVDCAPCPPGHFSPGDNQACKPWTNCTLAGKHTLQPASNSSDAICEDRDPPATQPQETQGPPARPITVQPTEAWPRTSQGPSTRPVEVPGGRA

human OX40-ECD.His H132A = molecular target: T7, human OX40-ECD.His H132A (human, UniProt P43489 29-214)
T7 construct: extracellular domain; not shown: C-terminal His-tag
T7 sequence (looked up): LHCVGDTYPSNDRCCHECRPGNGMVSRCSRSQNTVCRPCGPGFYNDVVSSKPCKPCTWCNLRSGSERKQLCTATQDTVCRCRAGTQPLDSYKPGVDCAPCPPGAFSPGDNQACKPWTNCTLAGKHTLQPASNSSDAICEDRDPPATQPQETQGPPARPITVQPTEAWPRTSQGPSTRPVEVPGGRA

human OX40-ECD.His G131A = molecular target: T8, human OX40-ECD.His G131A (human, UniProt P43489 29-214)
T8 construct: extracellular domain; not shown: C-terminal His-tag
T8 sequence (looked up): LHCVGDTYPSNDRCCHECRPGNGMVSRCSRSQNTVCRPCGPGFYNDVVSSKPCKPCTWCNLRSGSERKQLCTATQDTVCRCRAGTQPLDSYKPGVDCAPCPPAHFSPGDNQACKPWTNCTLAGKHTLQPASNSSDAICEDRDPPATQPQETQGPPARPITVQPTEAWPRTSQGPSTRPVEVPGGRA

human OX40-ECD.His L89A = molecular target: T9, human OX40-ECD.His L89A (human, UniProt P43489 29-214)
T9 construct: extracellular domain; not shown: C-terminal His-tag
T9 sequence (looked up): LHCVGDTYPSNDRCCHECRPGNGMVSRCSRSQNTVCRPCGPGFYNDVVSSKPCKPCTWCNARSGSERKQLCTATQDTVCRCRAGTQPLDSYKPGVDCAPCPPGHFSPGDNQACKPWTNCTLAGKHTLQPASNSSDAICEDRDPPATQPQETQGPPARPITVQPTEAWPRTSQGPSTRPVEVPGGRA

human OX40-ECD.His S161A = molecular target: T10, human OX40-ECD.His S161A (human, UniProt P43489 29-214)
T10 construct: extracellular domain; not shown: C-terminal His-tag
T10 sequence (looked up): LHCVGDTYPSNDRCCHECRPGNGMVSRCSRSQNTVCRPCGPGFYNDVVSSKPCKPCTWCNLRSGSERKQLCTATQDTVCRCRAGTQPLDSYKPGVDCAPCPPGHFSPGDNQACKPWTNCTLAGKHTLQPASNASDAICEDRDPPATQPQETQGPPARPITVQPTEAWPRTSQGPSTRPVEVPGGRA

B1: 1.134.9-u1-IgG1L (antibody, V domains shown)
VH: QVQLQESGPGLVKPSGTLSLTCAVSGGSISSYNWWSWVRQPPGKGLEWIGEIYHGGNTNYNPSLKSRVTMSVDNSKNQFSLKLSSVTAADTAVYYCARAPGDWGGSPYFDFWGQGTLVTVSS
VL: SSELTQDPAVSVALGQTVRITCQGDNLRTYYASWYQQKPGQAPILLIYGRNKRPSGIPDRFSGSSSGNTASLTITGAQAEDEAAYYCNSRDSSGNPVVFGGGTKLTVL
notes: fully human IgG1, lambda
Fold Change (human OX40-ECD.His E94A): 0.716
Fold Change (human OX40-ECD.His T85A): 0.808
Fold Change (human OX40-ECD.His E45A): 1.02
Fold Change (human OX40-ECD.His K79A): 0.992
Fold Change (human OX40-ECD.His N146A): 0.73
Fold Change (human OX40-ECD.His S38A): 0.997
Fold Change (human OX40-ECD.His H132A): 0.826
Fold Change (human OX40-ECD.His G131A): 0.958
Fold Change (human OX40-ECD.His L89A): 0.992
Fold Change (human OX40-ECD.His S161A): 0.945
